Test results from patent EP2002021B1.
One block for each substance: values may come before it.

Legend:
Test in all cases: cell-based or functional assay
[1] = molecular target: EGFR-TEV-NIa-Pro cleavage (Leu)-tTA (human) (UniProt P00533)
[2] = molecular target: CCR5-tTA fusion construct containing the low efficiency cleavage site (UniProt P51681)
[3] = molecular target: IGF1R-TEV-NIa-Pro cleavage (Leu)-tTA (human) (UniProt P08069)
Chain of UniProt P08069 (P08069 whole entry, form in doubt): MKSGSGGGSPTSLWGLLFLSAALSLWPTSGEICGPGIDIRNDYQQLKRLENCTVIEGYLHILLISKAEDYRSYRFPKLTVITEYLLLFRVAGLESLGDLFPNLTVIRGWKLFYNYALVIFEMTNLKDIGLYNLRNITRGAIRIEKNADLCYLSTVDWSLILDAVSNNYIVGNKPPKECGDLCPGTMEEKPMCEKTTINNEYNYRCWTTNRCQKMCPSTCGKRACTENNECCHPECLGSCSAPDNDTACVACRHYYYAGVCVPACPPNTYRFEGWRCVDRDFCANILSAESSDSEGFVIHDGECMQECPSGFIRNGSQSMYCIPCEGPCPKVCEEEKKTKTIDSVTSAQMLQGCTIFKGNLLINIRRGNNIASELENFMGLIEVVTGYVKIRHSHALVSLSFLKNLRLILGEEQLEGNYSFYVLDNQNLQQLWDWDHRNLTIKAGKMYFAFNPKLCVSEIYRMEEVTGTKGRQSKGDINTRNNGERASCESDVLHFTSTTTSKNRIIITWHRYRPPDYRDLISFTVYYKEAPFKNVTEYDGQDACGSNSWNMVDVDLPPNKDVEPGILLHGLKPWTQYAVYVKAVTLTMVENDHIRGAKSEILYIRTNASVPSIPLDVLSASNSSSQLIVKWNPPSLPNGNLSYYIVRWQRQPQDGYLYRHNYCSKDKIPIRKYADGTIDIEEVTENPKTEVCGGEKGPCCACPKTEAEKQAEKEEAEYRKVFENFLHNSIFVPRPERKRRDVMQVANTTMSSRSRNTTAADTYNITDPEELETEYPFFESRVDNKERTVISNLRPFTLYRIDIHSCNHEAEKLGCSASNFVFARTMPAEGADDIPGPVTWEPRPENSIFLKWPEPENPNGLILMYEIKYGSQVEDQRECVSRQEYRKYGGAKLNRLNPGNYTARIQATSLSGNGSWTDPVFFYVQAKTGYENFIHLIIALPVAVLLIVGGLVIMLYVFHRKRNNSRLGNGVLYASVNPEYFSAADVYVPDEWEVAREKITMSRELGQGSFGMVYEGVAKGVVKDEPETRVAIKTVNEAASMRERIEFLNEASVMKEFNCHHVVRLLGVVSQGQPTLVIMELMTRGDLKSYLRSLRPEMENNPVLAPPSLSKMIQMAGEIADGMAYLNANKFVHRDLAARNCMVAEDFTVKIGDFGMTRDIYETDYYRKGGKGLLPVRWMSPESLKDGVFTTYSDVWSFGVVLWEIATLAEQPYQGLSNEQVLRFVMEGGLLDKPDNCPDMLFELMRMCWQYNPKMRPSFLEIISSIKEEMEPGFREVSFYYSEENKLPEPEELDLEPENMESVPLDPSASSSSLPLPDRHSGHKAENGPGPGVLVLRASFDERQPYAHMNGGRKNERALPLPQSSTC

Chain of UniProt P51681 (P51681 whole entry, form in doubt, the tested form may be a part): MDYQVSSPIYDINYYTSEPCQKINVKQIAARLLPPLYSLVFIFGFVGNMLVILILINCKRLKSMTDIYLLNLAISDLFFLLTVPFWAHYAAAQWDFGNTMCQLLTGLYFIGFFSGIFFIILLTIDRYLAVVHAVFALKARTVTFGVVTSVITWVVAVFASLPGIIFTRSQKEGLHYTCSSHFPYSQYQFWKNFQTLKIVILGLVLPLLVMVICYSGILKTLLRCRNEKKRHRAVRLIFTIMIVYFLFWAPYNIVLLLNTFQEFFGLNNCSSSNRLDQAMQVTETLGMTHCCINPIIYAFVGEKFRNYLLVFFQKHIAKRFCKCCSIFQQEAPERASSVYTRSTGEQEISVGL

Substance: PLC Gamma1-TEV
fold increase of luciferase reporter gene activity, 2.5 ng/ml EGF [1]: 12.3 fold | fold increase of luciferase reporter gene activity, 100 ng/ml TGF-alpha [1]: 18.3 fold

fold induction of reporter gene expression over the background, 1 µg/ml RANTES, clone 34 cells [2]: 40 fold
Substance: Regulated on Activation, Normal T-Cell Expressed and Secreted (RANTES) (from UniProt P13501 24-91) (ligand)

Substance: SHC1-TEV (from UniProt P29353 1-238)
fold increase of luciferase reporter gene activity, 1 µM IGF-1 [3]: 90 fold

fold increase of luciferase reporter gene activity, 100 ng/ml TGF-alpha [1]: 18.3 fold
Substance: human Transforming Growth Factor - Alpha (from UniProt P01135 40-89) (ligand)
